# Laboratory results as given in the Immune Epitope Database (IEDB).
# Key:
# Experiment in all cases: IEDB peptide-MHC binding, purified MHC/competitive/radioactivity; filed as Kd, often an IC50 or EC50 that approximates it; ≥ and ≤ were set here for values at or beyond the usual limits of such assays
# HLA-A*03:01 = target: HLA-A*03:01
# HLA-A*68:01 = target: HLA-A*68:01
# HLA-A*11:01 = target: HLA-A*11:01
# HLA-A*33:01 = target: HLA-A*33:01
# HLA-A*31:01 = target: HLA-A*31:01
# [1] = source organism: Dengue virus 1 Brazil/97-11/1997
# [2] = source organism: Vaccinia virus WR
# [3] = source organism: Dengue virus 3 Martinique/1243/1999
# [4] = source organism: SARS coronavirus Tor2
Sequence,Kd (HLA-A*68:01; [2]),Kd (HLA-A*03:01; [2]),Kd (HLA-A*11:01; [2]),Kd (HLA-A*33:01; [2]),Kd (HLA-A*31:01; [2]),further results
IMDLHPGSGK,–,–,–,–,–,Kd (HLA-A*03:01; [1]): 60.1 nM
IMVASDVCKK,74.4 nM,16.9 nM,53.3 nM,7130 nM,270 nM,–
ISEKETLNEY,≥ 35000 nM,≥ 70100 nM,3000 nM,≥ 55600 nM,≥ 45800 nM,–
ISLNSMYTR,13.3 nM,6100 nM,37.4 nM,85.6 nM,4.62 nM,–
ISQGAGWSLR,–,–,–,–,–,Kd (HLA-A*31:01; [3]): 8.62 nM
ISSVQLSNNK,1280 nM,943 nM,121 nM,3000 nM,4420 nM,–
IVFVCVEYY,–,–,–,–,–,Kd (HLA-A*68:01; [4]): 23 nM; Kd (HLA-A*03:01; [4]): 49.7 nM; Kd (HLA-A*11:01; [4]): 41 nM; Kd (HLA-A*33:01; [4]): 844 nM; Kd (HLA-A*31:01; [4]): 112 nM
IVNAANIHLK,–,–,–,–,–,Kd (HLA-A*68:01; [4]): 66.5 nM; Kd (HLA-A*03:01; [4]): 51.1 nM; Kd (HLA-A*11:01; [4]): 104 nM; Kd (HLA-A*33:01; [4]): ≥ 70000 nM; Kd (HLA-A*31:01; [4]): 2230 nM
KAIITPVVFY,6700 nM,7470 nM,900 nM,≥ 70000 nM,≥ 70000 nM,–
KAIKILIGFR,–,–,–,–,–,Kd (HLA-A*31:01; source organism: Dengue virus 4 Dominica/814669/1981): 8.62 nM
KALMQLTTK,5800 nM,181 nM,87.9 nM,18600 nM,135 nM,–
KEFKDFAAGR,–,–,–,–,–,Kd (HLA-A*31:01; [3]): 405 nM
KFQADSPKR,–,–,–,–,–,Kd (HLA-A*31:01; [1]): 39.9 nM
KLIHEWCCR,–,–,–,–,–,Kd (HLA-A*31:01; [3]): 39.6 nM
KSEFQIYKK,–,–,–,–,–,Kd (HLA-A*11:01; source organism: Dengue virus 2 Jamaica/1409/1983): 244 nM
KSSQRDTILK,–,–,–,–,–,Kd (HLA-A*11:01; source organism: Mammarenavirus brazilense): 33.2 nM
KTNCCRFQEK,–,–,–,–,–,Kd (HLA-A*68:01; [4]): 4220 nM; Kd (HLA-A*03:01; [4]): 38.3 nM; Kd (HLA-A*11:01; [4]): 33.3 nM; Kd (HLA-A*33:01; [4]): ≥ 37700 nM; Kd (HLA-A*31:01; [4]): 50.5 nM
KTQVGVGVQK,–,–,–,–,–,Kd (HLA-A*11:01; [3]): 59.5 nM
KVKYLYFIK,–,–,–,–,–,Kd (HLA-A*68:01; [4]): 968 nM; Kd (HLA-A*03:01; [4]): 113 nM; Kd (HLA-A*11:01; [4]): 49.1 nM; Kd (HLA-A*33:01; [4]): 9300 nM; Kd (HLA-A*31:01; [4]): 0.138 nM
LILNFLDWIK,165 nM,25.1 nM,9.27 nM,7300 nM,163 nM,–
